Results from patent US20110294738A1, “PTHR1 RECEPTOR COMPOUNDS” (priority 2008, published 2011).
Where two headings read alike, the source gives them in different places. Peptide text beside a SMILES is read from it. * marks the point of attachment. Palmitoyl = CCCCCCCCCCCCCCCC(=O)*

How the values were obtained:
PTHR1 [1] = target: T1, PTHR1 (Rattus norvegicus, UniProt P25961)
T1 sequence (P25961 27-591): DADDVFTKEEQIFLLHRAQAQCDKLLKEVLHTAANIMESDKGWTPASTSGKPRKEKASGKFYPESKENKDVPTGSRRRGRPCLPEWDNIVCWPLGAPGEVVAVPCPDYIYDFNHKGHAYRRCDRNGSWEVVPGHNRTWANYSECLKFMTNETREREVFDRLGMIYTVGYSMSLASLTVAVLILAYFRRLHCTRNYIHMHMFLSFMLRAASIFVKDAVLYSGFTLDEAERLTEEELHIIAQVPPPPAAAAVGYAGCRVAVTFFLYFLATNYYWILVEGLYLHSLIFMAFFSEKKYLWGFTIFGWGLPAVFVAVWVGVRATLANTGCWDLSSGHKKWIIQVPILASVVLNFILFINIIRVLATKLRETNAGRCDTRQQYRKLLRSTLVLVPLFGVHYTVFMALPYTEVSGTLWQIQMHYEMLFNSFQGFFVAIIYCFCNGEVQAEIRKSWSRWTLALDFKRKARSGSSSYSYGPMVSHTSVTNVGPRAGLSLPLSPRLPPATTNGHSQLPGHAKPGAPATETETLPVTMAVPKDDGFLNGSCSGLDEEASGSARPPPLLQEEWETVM
Protocol: (§1) cAMP Screening Assay Using DiscoveRX XS+ Kit
(§2) UMR-106 cells were seeded in 96-well white plates at 10K cells/well in growth media. Twenty four hours after seeding, cell media was removed by gentle dumping and replaced with 30 μL of compounds diluted to 10 μM final concentration in assay buffer (Hank's balanced Salt Solution, 20 mM HEPES, pH 7.4, 0.1 μM IBMX). After 30 minute incubation at room temperature, 10 μL human PTH1-34 serial diluted in assay buffer was added. Cells were incubated at 37° C. for 15 minutes before 10 μL of water soluble analog of forskolin, NKH477 was added to final concentration of 10 μM followed by 60 minute incubation at room temperature. DiscoveRX cAMP XS+ kit reagents were then added following manufacture protocol. Briefly, 10 μL of antibody was added to each well followed by 40 μL of ED/Lysis buffer mix (1/5/19 for Galacon-star/Emerald/Lysis buffer and then 1:1 with ED). After 1 hour incubation, 40 μL of EA reagent was added followed by at least 1 hour incubation before the plates were read on TopCount reader. Data was analyzed using GraphPad Prism. PTH1-34 dose-response curves were fitted using non-linear curve fit (Y=Bottom+(Top−Bottom)/(1+10̂((Log EC50−X)*HillSlope))). PTH1-34 EC50 values calculated in the presence of compounds were compared to that in the presence of vehicle control. The ratio of the EC50 values were calculated and presented as fold shift (EC50 compound/EC50 vehicle). The effect of compounds on PTH1-34 stimulated maximal response was also assessed and was presented percent inhibition (1−(Emax compound/Emax vehicle)).

PTHR1 [2] = target: T1, PTHR1; assay: cAMP screening assay using DiscoveRX XS+ kit (PTH1-34 dose-response in UMR-106 cells); conditions: compound 10 μM; for Inhibition of Maximal Response: PTH1-34 stimulated maximal response, 1−(Emax compound/Emax vehicle); for Fold Shift of EC50: PTH1-34 EC50 compound/EC50 vehicle
Protocol: as §1, §2

Chain of PTHR1 receptor (P25961 whole entry): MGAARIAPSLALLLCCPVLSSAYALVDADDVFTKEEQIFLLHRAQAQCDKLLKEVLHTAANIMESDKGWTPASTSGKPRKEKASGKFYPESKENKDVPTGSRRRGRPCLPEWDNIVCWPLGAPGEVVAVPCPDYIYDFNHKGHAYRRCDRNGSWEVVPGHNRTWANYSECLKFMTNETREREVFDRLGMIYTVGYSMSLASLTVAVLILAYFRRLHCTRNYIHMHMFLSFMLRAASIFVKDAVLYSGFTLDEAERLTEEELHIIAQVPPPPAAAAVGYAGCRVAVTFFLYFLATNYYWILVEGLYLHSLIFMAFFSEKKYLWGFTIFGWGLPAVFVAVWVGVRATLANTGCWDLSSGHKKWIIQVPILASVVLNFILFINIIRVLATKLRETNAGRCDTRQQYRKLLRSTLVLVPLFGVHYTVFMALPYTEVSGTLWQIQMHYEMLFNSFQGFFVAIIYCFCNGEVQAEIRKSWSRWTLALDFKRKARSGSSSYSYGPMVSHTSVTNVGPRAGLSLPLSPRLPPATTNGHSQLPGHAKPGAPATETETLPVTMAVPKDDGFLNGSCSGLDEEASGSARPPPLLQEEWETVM

Molecule: NGEVQAEIKKSWSR [Compound 100]
- Fold Shift of EC50 (PTHR1 [1]): 1.8
- Inhibition of Maximal Response (PTHR1 [2]): 26.80%

Molecule: TNAGRSDTRQQYRKLLKSTL [Compound 52]
- Fold Shift of EC50 (PTHR1 [1]): 11.1
- Inhibition of Maximal Response (PTHR1 [2]): 1.70%

Molecule: LAYFRRLHSTRNYI [Compound 9]
- Fold Shift of EC50 (PTHR1 [1]): 1.1
- Inhibition of Maximal Response (PTHR1 [2]): 12.70%

Molecule: RQQYRKLLKSTL [Compound 57]
- Fold Shift of EC50 (PTHR1 [1]): 15.6
- Inhibition of Maximal Response (PTHR1 [2]): −38.80%

Molecule: RETNAGRSDTRQQRKLLKS [Compound 48]
- Fold Shift of EC50 (PTHR1 [1]): 7
- Inhibition of Maximal Response (PTHR1 [2]): −3.30%

Molecule: VLATKLRETNAGRSDTRQQ [Compound 46]
- Fold Shift of EC50 (PTHR1 [1]): 0.9
- Inhibition of Maximal Response (PTHR1 [2]): 20.30%

Molecule: LAYFRRLHSTRNYIH [Compound 5]
- Fold Shift of EC50 (PTHR1 [1]): 1
- Inhibition of Maximal Response (PTHR1 [2]): 13.00%

Molecule: TNAGRSDARQQYRKLL [Compound 79]
- Fold Shift of EC50 (PTHR1 [2]): 7.2
- Inhibition of Maximal Response (PTHR1 [2]): 1.20%

Molecule: TNAGRSDTRQQYRALL [Compound 90]
- Fold Shift of EC50 (PTHR1 [2]): 2
- Inhibition of Maximal Response (PTHR1 [2]): 21.00%

Molecule: Pal-TNAGRSATRQQYRKLL-amide (Palmitoyl-TNAGRSATRQQYRKLL-NH2; SMILES CCCCCCCCCCCCCCCC(=O)N[C@H](C(=O)N[C@@H](CC(N)=O)C(=O)N[C@@H](C)C(=O)NCC(=O)N[C@@H](CCCNC(=N)N)C(=O)N[C@@H](CO)C(=O)N[C@@H](C)C(=O)N[C@H](C(=O)N[C@@H](CCCNC(=N)N)C(=O)N[C@@H](CCC(N)=O)C(=O)N[C@@H](CCC(N)=O)C(=O)N[C@@H](Cc1ccc(O)cc1)C(=O)N[C@@H](CCCNC(=N)N)C(=O)N[C@@H](CCCCN)C(=O)N[C@@H](CC(C)C)C(=O)N[C@@H](CC(C)C)C(N)=O)[C@@H](C)O)[C@@H](C)O) [Compound 82]
- Fold Shift of EC50 (PTHR1 [2]): 23.4
- Inhibition of Maximal Response (PTHR1 [2]): −21.60%

Molecule: TNAGRSDTRAQYRKLL [Compound 81]
- Fold Shift of EC50 (PTHR1 [2]): 13.8
- Inhibition of Maximal Response (PTHR1 [2]): −20.80%

Molecule: TNAGRSDTRQQYRKLL [Compound 68]
- Fold Shift of EC50 (PTHR1 [1]): 12.36

Molecule: LAYFRRLHSTRNY [Compound 3]
- Fold Shift of EC50 (PTHR1 [2]): 0.7
- Inhibition of Maximal Response (PTHR1 [2]): −51.40%

Molecule: TNAGRSDTRQQYRKAL [Compound 89]
- Fold Shift of EC50 (PTHR1 [2]): 2.3
- Inhibition of Maximal Response (PTHR1 [2]): −20.40%

Molecule: AGRSDTRQQYRKLLFS [Compound 95]
- Fold Shift of EC50 (PTHR1 [2]): 19
- Inhibition of Maximal Response (PTHR1 [2]): −5.70%

Molecule: SSYFRRLHSTRNYIH [Compound 12]
- Fold Shift of EC50 (PTHR1 [2]): 0.9
- Inhibition of Maximal Response (PTHR1 [2]): 26.60%

Molecule: LYLHSLIFMAFFSEKKYLWGFT [Compound 34]
- Fold Shift of EC50 (PTHR1 [2]): 1.2
- Inhibition of Maximal Response (PTHR1 [2]): 4.20%

Molecule: RETNAGRSDTRQQYRKLLKS [Compound 51]
- Fold Shift of EC50 (PTHR1 [1]): 12.45

Molecule: RETNAGRSDTRQQYRKLLFS [Compound 58]
- Fold Shift of EC50 (PTHR1 [1]): 17.74

Molecule: GSYFRRLHSTRNYIH [Compound 11]
- Fold Shift of EC50 (PTHR1 [2]): 1.1
- Inhibition of Maximal Response (PTHR1 [2]): 19.80%

Molecule: TNAGRSDTRQQYRKLLFS [Compound 85]
- Fold Shift of EC50 (PTHR1 [2]): 6.9
- Inhibition of Maximal Response (PTHR1 [2]): 19.50%

Molecule: TNAGRSDTAQQYRKLL [Compound 78]
- Fold Shift of EC50 (PTHR1 [2]): 12.7
- Inhibition of Maximal Response (PTHR1 [2]): −29.20%

Molecule: TNAGRSDTRQQYAKLL [Compound 91]
- Fold Shift of EC50 (PTHR1 [2]): 2
- Inhibition of Maximal Response (PTHR1 [2]): 9.80%

Molecule: CCCCCCCCCCCCCCCC(=O)N[C@@H](Cc1c[nH]c2ccccc12)C(=O)N[C@H](C(=O)N[C@@H](CC(C)C)C(=O)N[C@@H](C)C(=O)N[C@@H](CC(C)C)C(=O)N[C@@H](CC(=O)O)C(=O)NC(Cc1ccccc1)C(=O)N[C@@H](CCCCN)C(=O)N[C@@H](CCCNC(=N)N)C(=O)N[C@@H](CCCCN)C(=O)N[C@@H](C)C(=O)N[C@@H](CCCNC(=N)N)C(N)=O)[C@@H](C)O (stereo partly drawn) [Compound 103]
- Fold Shift of EC50 (PTHR1 [1]): 1.2

Molecule: TNAARSDTRQQYRKLL [Compound 80]
- Fold Shift of EC50 (PTHR1 [2]): 2.3
- Inhibition of Maximal Response (PTHR1 [2]): 0.80%

Molecule: TNAGRSDTRQAYRKLL [Compound 93]
- Fold Shift of EC50 (PTHR1 [2]): 13.4
- Inhibition of Maximal Response (PTHR1 [2]): −67.00%

Molecule: TNAGASDTRQQYRKLL [Compound 76]
- Fold Shift of EC50 (PTHR1 [2]): 16.9
- Inhibition of Maximal Response (PTHR1 [2]): 2.40%

Molecule: TNAGRSDTRQQARKLL [Compound 92]
- Fold Shift of EC50 (PTHR1 [2]): 5
- Inhibition of Maximal Response (PTHR1 [2]): 8.30%

Molecule: RRLHSTRNYIHMHL [Compound 16]
- Fold Shift of EC50 (PTHR1 [1]): 2.45

Molecule: LYLHSLIFMSFFSEKK [Compound 40]
- Fold Shift of EC50 (PTHR1 [2]): 1.5
- Inhibition of Maximal Response (PTHR1 [2]): 28.30%

Molecule: RRLHSTRNYIH [Compound 2]
- Fold Shift of EC50 (PTHR1 [2]): 1.9
- Inhibition of Maximal Response (PTHR1 [2]): −24.90%

Molecule: AGRSDTRQQYRKLLKS [Compound 65]
- Fold Shift of EC50 (PTHR1 [1]): 14.65

Molecule: CCCCCCCCCCCCCCCC(=O)N[C@@H](CC(N)=O)C(=O)NCC(=O)N[C@@H](CCC(=O)O)C(=O)N[C@H](C(=O)N[C@@H](CCC(N)=O)C(=O)N[C@@H](C)C(=O)N[C@@H](CCC(=O)O)C(=O)N[C@H](C(=O)N[C@@H](CCCCN)C(=O)N[C@@H](CCCCN)C(=O)N[C@@H](CO)C(=O)N[C@@H](Cc1c[nH]c2ccccc12)C(N)=O)[C@@H](C)CC)C(C)C [Compound 99] (Palmitoyl-NGEVQAEIKKSW-NH2)
- Fold Shift of EC50 (PTHR1 [1]): 1

B1: Compound 71 (peptide)
peptide: Palmitoyl-SGRVLATKLR-NH2
SMILES: CCCCCCCCCCCCCCCC(=O)N[C@@H](CO)C(=O)NCC(=O)N[C@@H](CCCNC(=N)N)C(=O)N[C@H](C(=O)N[C@@H](CC(C)C)C(=O)N[C@@H](C)C(=O)N[C@H](C(=O)N[C@@H](CCCCN)C(=O)N[C@@H](CC(C)C)C(=O)N[C@@H](CCCNC(=N)N)C(N)=O)[C@@H](C)O)C(C)C
- Fold Shift of EC50 (PTHR1 receptor): 0.8 fold
- Inhibition of Maximal Response (PTHR1 receptor): 13.5%

B2: Compound 69 (peptide)
peptide: Palmitoyl-TNAGRSDTRQQYRK-NH2
SMILES: CCCCCCCCCCCCCCCC(=O)N[C@H](C(=O)N[C@@H](CC(N)=O)C(=O)N[C@@H](C)C(=O)NCC(=O)N[C@@H](CCCNC(=N)N)C(=O)N[C@@H](CO)C(=O)N[C@@H](CC(=O)O)C(=O)N[C@H](C(=O)N[C@@H](CCCNC(=N)N)C(=O)N[C@@H](CCC(N)=O)C(=O)N[C@@H](CCC(N)=O)C(=O)N[C@@H](Cc1ccc(O)cc1)C(=O)N[C@@H](CCCNC(=N)N)C(=O)N[C@@H](CCCCN)C(N)=O)[C@@H](C)O)[C@@H](C)O
- Fold Shift of EC50 (PTHR1 receptor): 5.2 fold
- Inhibition of Maximal Response (PTHR1 receptor): 2.5%

B3: Compound 67 (peptide)
peptide: Palmitoyl-DTRQQYRKLLKS-NH2
SMILES: CCCCCCCCCCCCCCCC(=O)N[C@@H](CC(=O)O)C(=O)N[C@H](C(=O)N[C@@H](CCCNC(=N)N)C(=O)N[C@@H](CCC(N)=O)C(=O)N[C@@H](CCC(N)=O)C(=O)N[C@@H](Cc1ccc(O)cc1)C(=O)N[C@@H](CCCNC(=N)N)C(=O)N[C@@H](CCCCN)C(=O)N[C@@H](CC(C)C)C(=O)N[C@@H](CC(C)C)C(=O)N[C@@H](CCCCN)C(=O)N[C@@H](CO)C(N)=O)[C@@H](C)O
- Fold Shift of EC50 (PTHR1 receptor): 6 fold
- Inhibition of Maximal Response (PTHR1 receptor): 6.9%

B4: Compound 68 (peptide)
peptide: Palmitoyl-TNAGRSDTRQQYRKLL-NH2
SMILES: CCCCCCCCCCCCCCCC(=O)N[C@H](C(=O)N[C@@H](CC(N)=O)C(=O)N[C@@H](C)C(=O)NCC(=O)N[C@@H](CCCNC(=N)N)C(=O)N[C@@H](CO)C(=O)N[C@@H](CC(=O)O)C(=O)N[C@H](C(=O)N[C@@H](CCCNC(=N)N)C(=O)N[C@@H](CCC(N)=O)C(=O)N[C@@H](CCC(N)=O)C(=O)N[C@@H](Cc1ccc(O)cc1)C(=O)N[C@@H](CCCNC(=N)N)C(=O)N[C@@H](CCCCN)C(=O)N[C@@H](CC(C)C)C(=O)N[C@@H](CC(C)C)C(N)=O)[C@@H](C)O)[C@@H](C)O
- Fold Shift of EC50 (PTHR1 receptor): 12.4 fold
- Inhibition of Maximal Response (PTHR1 receptor): -0.0684

B5: Compound 70 (peptide)
peptide: Palmitoyl-TNAGRSDTRQQYRF-NH2
SMILES: CCCCCCCCCCCCCCCC(=O)N[C@H](C(=O)N[C@@H](CC(N)=O)C(=O)N[C@@H](C)C(=O)NCC(=O)N[C@@H](CCCNC(=N)N)C(=O)N[C@@H](CO)C(=O)N[C@@H](CC(=O)O)C(=O)N[C@H](C(=O)N[C@@H](CCCNC(=N)N)C(=O)N[C@@H](CCC(N)=O)C(=O)N[C@@H](CCC(N)=O)C(=O)N[C@@H](Cc1ccc(O)cc1)C(=O)N[C@@H](CCCNC(=N)N)C(=O)N[C@@H](Cc1ccccc1)C(N)=O)[C@@H](C)O)[C@@H](C)O
- Fold Shift of EC50 (PTHR1 receptor): 2 fold
- Inhibition of Maximal Response (PTHR1 receptor): 15.1%
